Data set [1] concerns the target T1, DprE1 (Mycolicibacterium smegmatis, UniProt A0R607).
T1 sequence (A0R607 1-460): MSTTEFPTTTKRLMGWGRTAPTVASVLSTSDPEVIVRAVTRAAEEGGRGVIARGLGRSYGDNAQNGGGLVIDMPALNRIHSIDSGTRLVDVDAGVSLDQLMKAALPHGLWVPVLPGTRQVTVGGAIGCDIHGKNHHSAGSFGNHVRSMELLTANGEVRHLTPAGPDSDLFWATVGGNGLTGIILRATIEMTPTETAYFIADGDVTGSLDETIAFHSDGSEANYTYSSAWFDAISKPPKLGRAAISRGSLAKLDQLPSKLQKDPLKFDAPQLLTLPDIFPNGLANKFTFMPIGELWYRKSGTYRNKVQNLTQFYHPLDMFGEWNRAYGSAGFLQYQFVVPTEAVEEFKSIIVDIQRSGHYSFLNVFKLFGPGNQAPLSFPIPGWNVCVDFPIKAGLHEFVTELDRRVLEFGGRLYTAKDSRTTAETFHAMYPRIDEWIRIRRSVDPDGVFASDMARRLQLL
Put plainly: crystal structure of covalent adduct. It is filed as biochemical.

Data set [2] has as its target T1, DprE1. The data set can be described thus: DCPIP enzyme assay, […] min incubation. The class given is biochemical.
Substrate in data set [3]: CC(C)=CCC/C(C)=C/CC/C(C)=C/COP(=O)(O)O[C@@H]1O[C@H](CO)[C@@H](O)[C@H]1O
The data set can be described thus: purified protein. The settings on record: FAD; pH 8.5.

Substrate in data set [4]: O=C1C(Cl)=CC(=Nc2ccc(O)cc2)C=C1Cl
Put plainly: purified protein. The conditions noted are these: FAD electron acceptor re-oxidizing reduced FAD.

Broadly, the IC50 is the point on the concentration scale where inhibition reaches its midpoint. High values mean weaker potency in that assay, low ones greater potency in that assay. The molecule `C[C@H]1COC2(CCN(c3nc(=O)c4cc(C(F)(F)F)cc([N+](=O)[O-])c4s3)CC2)O1` [BTZ043] had an IC50 at DprE1 [1] of 4.5 µM.
On to `C[C@H]1COC2(CCN(c3nc(=O)c4cc(C(F)(F)F)cc(NO)c4s3)CC2)O1` [BTZ046], for which the IC50 against DprE1 [2] was found to be 19.7 µM.
Still for that read-out and setting: then `C[C@H]1COC2(CCN(c3nc(=O)c4cc(C(F)(F)F)cc(N)c4s3)CC2)O1` [BTZ045], with 11 µM.

B1: DprE1 (Mycolicibacterium smegmatis MC2 155) (protein)
chain: T1 sequence (A0R607 1-460)
The term Km denotes the substrate concentration at which the rate is half of its maximum. A word on the kcat: it is the number of substrate molecules converted per active site and unit of time at saturation. Broadly, the kcat/Km is the turnover number divided by the Michaelis constant. In the case of B1, in “purified protein [3]”, the Km turned out to be 0.11 mM, the kcat came out at 0.212 ± 0.01 s⁻¹ and the kcat/Km came out at 1930 ± 182 M⁻¹ s⁻¹. Moreover, in “purified protein [4]”, the Km came out at 4.2 µM.

Values taken from publication PMC3659392 (Science translational medicine, 2012).
